Measured values from PMC8613289.

Key:
Assay in all cases: TurboID proximity biotinylation, streptavidin pull-down, MS-based proteomics
Settings in all cases: biotin for 1 h; n = 5; read off a plot
NDC1 = molecular target: NDC1
NUPL2 = molecular target: NUPL2
Nup214 = Nup214 (UniProt P35658)
RANGAP1 = molecular target: RANGAP1
RanBP2 = RanBP2 (UniProt P49792)
AHCTF1 = molecular target: AHCTF1
Nup50 = Nup50 (UniProt Q9UKX7)

other: Student's T-test Difference WT NLS1 (NDC1) | other: Student's T-test Difference WT NLS1 (NUPL2) | other: Student's T-test Difference WT NLS1 (Nup214) | other: Student's T-test Difference WT NLS1 (RANGAP1) | other: Student's T-test Difference WT NLS1 (RanBP2) | other: Student's T-test Difference WT NLS1 (AHCTF1) | other: Student's T-test Difference WT NLS1 (Nup50) | other: Student's T-test Difference WT NLS2 (Nup214) | other: Student's T-test Difference WT NLS2 (RANGAP1) | other: Student's T-test Difference WT NLS2 (RanBP2) | other: Student's T-test Difference WT NLS2 (AHCTF1) | other: Student's T-test Difference WT NLS2 (Nup50) | Substance
-1 | -1.6 | 2 | 1.8 | 1.5 | 0.5 | 2.5 |  |  |  |  |  | EphA2-V5-TurboID (wild-type EphA2) (from UniProt P29317) NLS1 (RRR>AAA in the juxtamembrane stretch …, as read from Fig. 3a; no residue numbers printed)
 |  |  |  |  |  |  | 2.9 | 2.6 | 2.1 | 1.3 | 3.1 | EphA2-V5-TurboID (wild-type EphA2) (from UniProt P29317) NLS2 (two K>A in the stretch …, as read from Fig. 3a; no residue numbers printed)
